Publication PMC7870846, “Incorporation of sensing modalities into de novo designed fluorescence-activating proteins” (Nature Communications, 2021)
No end group written: not given here.

Assays:
Test in all cases: other fluorescence titration; MBP-tagged fragment titrated into its complementary MBP-tagged fragment; 25.0 uM DFHBI-1T; high-salt Tev cleavage buffer (25.0 mM Tris, 100 mM NaCl, pH 8.00); ex 468 nm, em 530 nm; estimated Kd, signal did not plateau
Conditions in all cases: both partners purified
[1] = target: T1, MBP-tagged split mFAP fragment m17
T1 chain: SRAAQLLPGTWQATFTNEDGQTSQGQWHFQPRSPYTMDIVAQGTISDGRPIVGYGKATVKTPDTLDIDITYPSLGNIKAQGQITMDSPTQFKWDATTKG

[2] = target: T2, MBP-tagged split mFAP fragment m16
T2 chain: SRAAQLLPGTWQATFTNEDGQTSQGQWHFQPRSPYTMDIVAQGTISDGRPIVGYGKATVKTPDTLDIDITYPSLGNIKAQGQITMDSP

[3] = target: T3, MBP-tagged split mFAP fragment m14
T3 chain: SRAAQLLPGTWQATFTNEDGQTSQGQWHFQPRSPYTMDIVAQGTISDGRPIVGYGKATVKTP

B1: MBP-tagged split mFAP fragment m8 (domain or fragment)
chain: ENDFHGRLTGTLQRQE
modifications: not fully specified
B1 was tested, and the Kd [1] was ≥ 354 µM.

B2: MBP-tagged split mFAP fragment m78 (domain or fragment)
chain: TQFKWDATTKGENDFHGRLTGTLQRQE
modifications: not fully specified
For B2, the Kd [2] was ≥ 232 µM.

B3: MBP-tagged split mFAP fragment m58 (domain or fragment)
chain: DTLDIDITYPSLGNIKAQGQITMDSPTQFKWDATTKGENDFHGRLTGTLQRQE
modifications: not fully specified
For B3, the Kd [3] was ≥ 22 µM.
